Measurements from US11994512B2, “Single-cell genomic methods to generate ex vivo cell systems that recapitulate in vivo biology with improved fidelity” (Massachusetts Institute of Technology, priority 2018, dated 2024).

System: intracellular proteome of ENR+CD and ENR organoids
Experiment: LC-MS/MS TMT proteomics of ENR+CD versus ENR organoids
Assay type: cell-based, C57BL/6 mice
Conditions: for Average logFC / M1-1 Log2 Median Normalized / M1-2 Log2 Median Normalized / M2-1 Log2 Median Normalized / M2-2 Log2 Median Normalized: protein abundance, ENR+CD versus ENR organoids; for Average logFC: aggregate of the four sample pairs; for M1-1 Log2 Median Normalized: replicate M1-1; for M1-1 Log2 Median Normalized / M1-2 Log2 Median Normalized / M2-1 Log2 Median Normalized / M2-2 Log2 Median Normalized: log2 ratio; for M1-2 Log2 Median Normalized: replicate M1-2; for M2-1 Log2 Median Normalized: replicate M2-1; for M2-2 Log2 Median Normalized: replicate M2-2; for change: up = enriched in ENR+CD, down = enriched in ENR, FDR<0.05 and log fold change cut-off
Excerpt: Because PCs are highly secretory, protein-rich cells, Applicants sought to assess the total intracellular proteome between conditions through liquid chromatography mass spectrometry (LC-MS/MS)-based proteomics. Applicants quantified relative protein abundance across eight samples using isobaric mass tag labeling from four ENR and four ENR+CD samples (M1-1 through M2-2, first digit denotes biological donor, second digit denotes technical replicate) (FIG. 3A). Samples were processed and analyzed in a single 10-plex by LC-MS/MS (FIG. 9A).
To affirm the reproducibility of the associated proteins in the ENR+CD-enriched proteome, Applicants performed relative quantification within differentiation sets.
Mass spectrometry proteomics sample preparation, sequencing, and quantification. Organoid cell pellets were isolated from Matrigel with mechanical dissociation and washed (cold PBS 5X) to remove residual extracellular protein. Proteins were extracted from cell pellets with 8 M urea (Sigma), reduced with 5 mM DTT (Thermo Fisher Pierce) for 45 minutes, alkylated with 10 mM IAA (Sigma) for 45 minutes in the dark, and double digested with both Lysyl Endopeptidase “LysC” (Wako) and trypsin (Promega) overnight at RT. A small aliquot of cellular lysate was removed from each sample for protein quantification via the Pierce™ BCA Protein Assay Kit (Pierce). After proteolytic digestion, the samples were quenched using formic acid to a final concentration of 1.0% and subsequently desalted on 10 mg OASIS HLB solid phase columns (Waters).
The peptides were labeled with TMT-10 isobaric mass tag reagent according to manufacturer's instructions (ThermoFisher Scientific). The peptides were labeled at a 1:8 ratio of peptide to TMT reagent, followed by 1-hour incubation at RT with bench top shaking at 850 rpm. After incubation, a […] of labeled tryptic peptide was removed from each labeled condition, desalted with C18 stage tips, and analyzed via LC-MS/MS using a Thermo Fisher Q Exactive Plus Hybrid Mass Spectrometer (QE-Plus) coupled to a Thermo Fisher EASY-nLC 1000 liquid chromatograph to ensure isobaric label incorporation >95%. An additional 1.0 μg of labeled tryptic peptide was removed from each channel, mixed together, desalted on a C18 stage tip, and analyzed via LC-MS to ensure equal relative protein loads. During these quality control steps, the labeled peptides were stored, unquenched at −80° C.

| Molecule | Average logFC | M1-1 Log2 Median Normalized | M1-2 Log2 Median Normalized | M2-1 Log2 Median Normalized | M2-2 Log2 Median Normalized | change |
| --- | --- | --- | --- | --- | --- | --- |
| P18242 (protein, UniProt P18242 1-410, looked up, full-length) MKTPGVLLLILGLLASSSFAIIRIPLRKFTSIRRTMTEVGGSVEDLILKGPITKYSMQSSPKTTEPVSELLKNYLDAQYYGDIGIGTPPQCFTVVFDTGSSNLWVPSIHCKILDIACWVHHKYNSDKSSTYVKNGTSFDIHYGSGSLSGYLSQDTVSVPCKSDQSKARGIKVEKQIFGEATKQPGIVFVAAKFDGILGMGYPHISVNNVLPVFDNLMQQKLVDKNIFSFYLNRDPEGQPGGELMLGGTDSKYYHGELSYLNVTRKAYWQVHMDQLEVGNELTLCKGGCEAIVDTGTSLLVGPVEEVKELQKAIGAVPLIQGEYMIPCEKVSSLPTVYLKLGGKNYELHPDKYILKVSQGGKTICLSGFMGMDIPPPSGPLWILGDVFIGSYYTVFDRDNNRVGFANAVVL | 1.296 | 1.508 | 1.211 | 0.9875 | 1.479 | up |
| P04184 (protein, UniProt P04184 1-233, looked up, full-length) MSYINLPTVLPSSPSKTRGQIQVILGPMFSGKSTELMRRVRRFQIAQYKCLVIKYAKDTRYSNSFSTHDRNTMDALPACMLRDVTQESLGVAVIGIDEGQFFPDIVDFCEMMANEGKTVIVAALDGTFQRKAFGSILNLVPLAESVVKLTAVCMECFREAAYTKRLGLEKEVEVIGGADKYHSVCRLCYFKKSSAQTAGSDNKNCLVLGQPGEALVVRKLFASQQVLQYNSAN | −1.187 | −1.268 | −1.033 | −1.0175 | −1.428 | down |
| P02772 (protein, UniProt P02772 1-605, looked up, full-length) MKWITPASLILLLHFAASKALHENEFGIASTLDSSQCVTEKNVLSIATITFTQFVPEATEEEVNKMTSDVLAAMKKNSGDGCLESQLSVFLDEICHETELSNKYGLSGCCSQSGVERHQCLLARKKTAPASVPPFQFPEPAESCKAHEENRAVFMNRFIYEVSRRNPFMYAPAILSLAAQYDKVVLACCKADNKEECFQTKRASIAKELREGSMLNEHVCSVIRKFGSRNLQATTIIKLSQKLTEANFTEIQKLALDVAHIHEECCQGNSLECLQDGEKVMTYICSQQNILSSKIAECCKLPMIQLGFCIIHAENGVKPEGLSLNPSQFLGDRNFAQFSSEEKIMFMASFLHEYSRTHPNLPVSVILRIAKTYQEILEKCSQSGNLPGCQDNLEEELQKHIEESQALSKQSCALYQTLGDYKLQNLFLIGYTRKAPQLTSAELIDLTGKMVSIASTCCQLSEEKWSGCGEGMADIFIGHLCIRNEASPVNSGISHCCNSSYSNRRLCITSFLRDETYAPPPFSEDKFIFHKDLCQAQGKALQTMKQELLINLVKQKPELTEEQLAAVTADFSGLLEKCCKAQDQEVCFTEEGPKLISKTRDALGV | −1.438 | −1.616 | −1.696 | −1.1235 | −1.316 | down |
| P06728 (protein, UniProt P06728 1-395, looked up, full-length) MFLKAAVLTLALVAITGTRAEVTSDQVANVVWDYFTQLSNNAKEAVEQFQKTDVTQQLSTLFQDKLGDASTYADGVHNKLVPFVVQLSGHLAQETERVKEEIKKELEDLRDRMMPHANKVTQTFGENMQKLQEHLKPYAVDLQDQINTQTQEMKLQLTPYIQRMQTTIKENVDNLHTSMMPLATNLKDKFNRNMEELKGHLTPRANELKATIDQNLEDLRRSLAPLTVGVQEKLNHQMEGLAFQMKKNAEELQTKVSAKIDQLQKNLAPLVEDVQSKVKGNTEGLQKSLEDLNRQLEQQVEEFRRTVEPMGEMFNKALVQQLEQFRQQLGPNSGEVESHLSFLEKSLREKVNSFMSTLEKKGSPDQPQALPLPEQAQEQAQEQAQEQVQPKPLES | −1.57 | −1.343 | −2.171 | −1.8605 | −0.907 | down |
| P11725 (protein, UniProt P11725 1-354, looked up, full-length) MLSNLRILLNNAALRKGHTSVVRHFWCGKPVQSQVQLKGRDLLTLKNFTGEEIQYMLWLSADLKFRIKQKGEYLPLLQGKSLGMIFEKRSTRTRLSTETGFALLGGHPSFLTTQDIHLGVNESLTDTARVLSSMTDAVLARVYKQSDLDTLAKEASIPIVNGLSDLYHPIQILADYLTLQEHYGSLKGLTLSWIGDGNNILHSIMMSAAKFGMHLQAATPKGYEPDPNIVKLAEQYAKENGTKLSMTNDPLEAARGGNVLITDTWISMGQEDEKKKRLQAFQGYQVTMKTAKVAASDWTFLHCLPRKPEEVDDEVFYSPRSLVFPEAENRKWTIMAVMVSLLTDYSPVLQKPKF | −1.477 | −1.478 | −1.458 | −2.2695 | −1.132 | down |
| P0C027 (protein, UniProt P0C027 1-164, looked up, full-length) MKCKPNQTRTYDPEGFKKRAACLCFRSEREDEVLLVSSSRYPDRWIVPGGGMEPEEEPDGAAVREVYEEAGVKGKLGRLLGVFEQNQDRKHRTYVFVLTVTELLEDWEDSVSIGRKREWFKIEDAIKVLQCHKPVHAEYLEKLKLGGSPTNGNSAAPSPPESEP | 1.134 | 1.368 | 1.133 | 0.8135 | 1.192 | up |
| P03958 (protein, UniProt P03958 1-352, looked up, full-length) MAQTPAFNKPKVELHVHLDGAIKPETILYFGKKRGIALPADTVEELRNIIGMDKPLSLPGFLAKFDYYMPVIAGCREAIKRIAYEFVEMKAKEGVVYVEVRYSPHLLANSKVDPMPWNQTEGDVTPDDVVDLVNQGLQEGEQAFGIKVRSILCCMRHQPSWSLEVLELCKKYNQKTVVAMDLAGDETIEGSSLFPGHVEAYEGAVKNGIHRTVHAGEVGSPEVVREAVDILKTERVGHGYHTIEDEALYNRLLKENMHFEVCPWSSYLTGAWDPKTTHAVVRFKNDKANYSLNTDDPLIFKSTLDTDYQMTKKDMGFTEEEFKRLNINAAKSSFLPEEEKKELLERLYREYQ | 1.34 | 1.339 | 0.074 | 1.5985 | 1.501 | up |
